Target: E. coli DNA sliding clamp β (Escherichia coli (strain K12), UniProt P0A988, maleimide-Atto647N on a single cysteine residue (position not given))
Test: CoSMoS single-molecule TIRF co-localization (dwell time 14.2 s on clamp-DNA); β clamp loaded by the γ clamp loader (ATP) onto end-blocked primer-template DNA; Pol IIIcore present as competitor

Chain of E. coli DNA sliding clamp β (P0A988 whole entry): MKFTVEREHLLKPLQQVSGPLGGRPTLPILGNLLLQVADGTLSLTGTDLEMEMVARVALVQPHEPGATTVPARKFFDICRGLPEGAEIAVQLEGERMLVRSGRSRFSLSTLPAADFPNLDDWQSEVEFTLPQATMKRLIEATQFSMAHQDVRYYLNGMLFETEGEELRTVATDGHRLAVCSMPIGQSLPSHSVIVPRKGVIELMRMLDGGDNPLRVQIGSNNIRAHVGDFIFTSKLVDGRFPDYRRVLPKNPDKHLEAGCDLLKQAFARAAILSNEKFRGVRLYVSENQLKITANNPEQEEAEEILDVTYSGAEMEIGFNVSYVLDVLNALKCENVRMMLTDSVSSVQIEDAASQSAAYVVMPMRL

B1: E. coli translesion DNA polymerase Pol IV, wild type (protein)
chain: MRKIIHVDMDCFFAAVEMRDNPALRDIPIAIGGSRERRGVISTANYPARKFGVRSAMPTGMALKLCPHLTLLPGRFDAYKEASNHIREIFSRYTSRIEPLSLDEAYLDVTDSVHCHGSATLIAQEIRQTIFNELQLTASAGVAPVKFLAKIASDMNKPNGQFVITPAEVPAFLQTLPLAKIPGVGKVSAAKLEAMGLRTCGDVQKCDLVMLLKRFGKFGRILWERSQGIDERDVNSERLRKSVGVERTMAEDIHHWSECEAIIERLYPELERRLAKVKPDLLIARQGVKLKFDDFQQTTQEHVWPRLNKADLIATARKTWDERRGGRGVRLVGLHVTLLDPQMERQLVLGL
modifications: Atto 565 (CoA-linked) conjugated by Sfp to the N-terminal Ybbr tag
binding result: binds

— PMC5731819 (2017)
